Experimental data: publication doi:10.1101/637298

How the values were obtained:
[1] = target: T1, hZFY full-length (13-finger construct) (human, UniProt P08048 408-768); test: fluorescence anisotropy dissociation
T1 sequence: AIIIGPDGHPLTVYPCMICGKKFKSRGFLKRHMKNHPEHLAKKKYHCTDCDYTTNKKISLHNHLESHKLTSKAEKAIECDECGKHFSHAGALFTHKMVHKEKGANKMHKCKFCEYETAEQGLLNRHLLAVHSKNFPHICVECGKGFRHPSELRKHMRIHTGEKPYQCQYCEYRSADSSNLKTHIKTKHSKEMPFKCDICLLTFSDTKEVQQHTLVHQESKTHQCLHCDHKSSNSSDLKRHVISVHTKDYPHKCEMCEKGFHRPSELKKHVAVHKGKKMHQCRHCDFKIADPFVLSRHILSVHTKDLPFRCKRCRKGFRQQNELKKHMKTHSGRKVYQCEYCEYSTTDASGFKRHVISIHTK

[2] = target: T1, hZFY full-length (13-finger construct); test: fluorescence anisotropy dissociation; remark: listed apart in the source

B1: S.S.S. (long) FAM probe (dsDNA)
DNA 1: ACCTGGCCTAGTCGTTTTTGAGATCTTCATCAATTGCCGCATC
DNA 2: GATGCGGCAATTGATGAAGATCTCAAAAACGACTAGGCCAGGT
B1: binds [1].

B2: S.S.N. FAM probe (dsDNA)
DNA 1: ACCTGGCCTAGTCGTTGCCCAGAT
DNA 2: ATCTGGGCAACGACTAGGCCAGGT
For B2, the binding signal [2] was ~2 fold shorter lifetime than SSS.
